Measurements as given in patent publication US8071348B2, “Protein tyrosine phosphatase substrate-trapping double mutant and uses thereof” (Albert Einstein College of Medicine of Yeshiva University, priority 2002, dated 2011).
[ ]: non-standard residue; d: D form. F2Pmp = N[C@@H](Cc1ccc(C(F)(F)P(=O)(O)O)cc1)C(=O)O

Assays:
[1] = molecular target: T1, Ac-Asp-Ala-Asp-Glu-F2Pmp-Leu-NH2; assay: ITC, 25 C, pH 7.0
T1 construct: Synthetic hexapeptide printed in three-letter code; also called F2Pmp-containing peptide; non-hydrolyzable substrate analog
T1 peptide: Ac-DADE[F2Pmp]L-NH2
Protocol: All isothermal titration calorimetry experiments were performed using an MCS Isothermal Titration Calorimetry System from Microcal Inc. (Northampton, Mass.). Experiments at pH 7.0 were conducted at 25° C., in 50 mM 3,3-dimethylglutarate buffer containing 1 mM DTT. The ionic strength of the buffer was adjusted to 0.15 M by addition of NaCl. Protein concentration in the calorimeter cell was 27-85 µM, while the ligand concentration in the syringe was 0.37-1 mM.
A typical titration curve and binding isotherm for the binding of D181A/Q262A to Ac-Asp-Ala-Asp-Glu-F_2Pmp-Leu-NH_2 is shown in FIG. 3. From curve-fitting of the binding isotherms, the stoichiometry for the binding of the peptide to D181A/Q262A was determined to be 1:1.

[2] = molecular target: Ac-Asp-Ala-Asp-Glu-F2Pmp-Leu-NH2; assay: Isothermal titration calorimetry, binding of PTP1B and mutants to F2Pmp peptide; settings: ITC, 25° C. and pH 7.0; data from this study
[3] = molecular target: T2, Ac-Asp-Ala-Asp-Glu-F2Pmp-Leu-NH2 (Homo sapiens, UniProt P18031, D181A/Q262A); assay: as above; settings: ITC, pH 7.0, ionic strength 0.15 M, 25° C.; read-out: dissociation constant, Kd
T2 construct: The catalytic domain of PTP1B (residues 1 to 321) was used for in vitro study; made in house; host or cells: E. coli (pT7-7 plasmids)
T2 sequence (P18031 1-321 D181A/Q262A): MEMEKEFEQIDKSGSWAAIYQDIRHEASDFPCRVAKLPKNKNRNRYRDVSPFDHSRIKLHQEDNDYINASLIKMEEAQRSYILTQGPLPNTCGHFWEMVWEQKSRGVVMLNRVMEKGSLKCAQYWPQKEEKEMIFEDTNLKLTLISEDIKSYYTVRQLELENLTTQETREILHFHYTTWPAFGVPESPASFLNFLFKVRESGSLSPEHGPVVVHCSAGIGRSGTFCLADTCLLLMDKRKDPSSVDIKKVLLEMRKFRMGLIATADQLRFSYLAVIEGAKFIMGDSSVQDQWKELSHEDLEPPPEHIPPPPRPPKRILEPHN

[4] = molecular target: T3, EGFR^988-998 peptide, DADEpYLIPQQG (Homo sapiens, UniProt P18031, D181A/Q262A); assay: Kinetic constants for PTP1B-catalyzed hydrolysis of pTyr-containing EGFR988-998 peptide; assay type: biochemical; settings: EGFR988-998 peptide as substrate
T3 construct: The catalytic domain of PTP1B (residues 1 to 321) was used for in vitro study; made in house; host or cells: E. coli (pT7-7 plasmids)
T3 sequence (P18031 1-321 D181A/Q262A): T2 sequence (P18031 1-321 D181A/Q262A)
Outline: (§1)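 PTP1B catalytic domain (residues 1–321), wild-type or mutant, expressed in E. coli. Continuous assay at 25° C., pH 7.0, in 50 mM 3,3-dimethylglutarate with 1 mM EDTA (ionic strength 0.15 M). Dephosphorylation followed by absorbance increase at 282 nm or fluorescence at 305 nm to obtain kcat and Km.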

[5] = test system: EGFR^988-998 peptide, DADEpYLIPQQG; assay: as above; assay type: biochemical; settings: EGFR988-998 peptide as substrate; 25° C. and pH 7.0
Outline: as §1

B1: PTP1B/D181A/Q262A, catalytic domain (residues 1 to 321) (enzyme, human, UniProt P18031 1-321, looked up)
chain: T2 sequence (P18031 1-321 D181A/Q262A)
notes: range 1-321; Used in vitro (ITC, kinetics); also called PTP1B substrate-trapping double mutant
Q: Which results are given for B1?
A: fold higher affinity than the D181A mutant [1]: ~6 fold; fold lower Kd than wild-type PTP1B and the C215S mutant [1]: ~30 fold; Kd [2]: 6.8 ± 2.3 nM; Kd [3]: 6.8 nM; kcat, fold lower than D181A [4]: 24 fold; Km [5]: 51 ± 4 µM; kcat [5]: (2.7 ± 0.1) × 10^−3 s^−
